{
  "source": "paper PMC5885369",
  "about": "“2-Oxoglutarate regulates binding of hydroxylated hypoxia-inducible factor to prolyl hydroxylase domain 2† †Electronic supplementary information (ESI) available: Details of experimental procedures and additional experiments. See DOI: 10.1039/c8cc00387d” (Chemical Communications (Cambridge, England), 2018)",
  "target": "T1, prolyl hydroxylase domain 2, PHD2_(181–426) (human, UniProt Q9GZT9 181-426)",
  "T1 construct": "Used apo, or with Fe(II), Zn(II), 2OG, succinate or fumarate; also called tPHD2; apo-tPHD2; source: recombinantly expressed",
  "T1 sequence (Q9GZT9 181-426)": "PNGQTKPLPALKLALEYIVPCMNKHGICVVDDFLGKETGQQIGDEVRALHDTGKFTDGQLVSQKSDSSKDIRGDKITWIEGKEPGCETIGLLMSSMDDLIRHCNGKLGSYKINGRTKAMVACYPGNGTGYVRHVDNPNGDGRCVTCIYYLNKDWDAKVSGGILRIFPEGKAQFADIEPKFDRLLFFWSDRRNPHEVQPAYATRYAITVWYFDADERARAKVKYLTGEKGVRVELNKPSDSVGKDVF",
  "test": "ITC; apo-tPHD2",
  "conditions": "both partners purified",
  "note": "Square brackets hold non-standard residues; d marks the D form. Ends that are not written are not given here. Hyp = O=C(O)[C@@H]1C[C@@H](O)CN1",
  "data": [
    {"binder": "DLDLEMLA[Hyp]YIPMDDDFQL", "note": "[hydroxylated 19-mer HIF-1α CODD peptide]", "values": [
      {"measurement": "Kd", "value": "4.6 ± 1.4", "unit": "µM"}
    ]}
  ]
}
